Publication PMC5624674

Target: T1, λCI-CbtA fusion protein (wild-type CbtA toxin of E. coli) (E. coli), P64524
T1 chain: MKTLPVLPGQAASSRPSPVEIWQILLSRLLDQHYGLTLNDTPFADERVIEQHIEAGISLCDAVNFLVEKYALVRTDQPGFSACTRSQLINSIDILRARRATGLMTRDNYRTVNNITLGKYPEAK
Assay: two-hybrid
Settings: remark: other sources report otherwise

B1: α-MreB fusion protein (wild-type E. coli MreB), P0A9X4 1-347 (natural protein)
chain: MLKKFRGMFSNDLSIDLGTANTLIYVKGQGIVLNEPSVVAIRQDRAGSPKSVAAVGHDAKQMLGRTPGNIAAIRPMKDGVIADFFVTEKMLQHFIKQVHSNSFMRPSPRVLVCVPVGATQVERRAIRESAQGAGAREVFLIEEPMAAAIGAGLPVSEATGSMVVDIGGGTTEVAVISLNGVVYSSSVRIGGDRFDEAIINYVRRNYGSLIGEATAERIKHEIGSAYPGDEVREIEVRGRNLAEGVPRGFTLNSNEILEALQEPLTGIVSAVMVALEQCPPELASDISERGMVLTGGGALLRNLDRLLMEETGIPVVVAEDPLTCVARGGGKALEMIDMHGGDLFSEE
  fold increase in lacZ expression: 3 fold
